The values that follow come from US20200165335A1 (Seagen, published 2020).

Several values for one entry are separate records, joined by “and”; a condition that tells them apart may be missing. Equal entries are not always repeated.

For assay [1], the target named is T1, human LIV-1 (human, UniProt Q13433 29-755).
T1 construct: also called hLIV-1; Q13433
T1 sequence: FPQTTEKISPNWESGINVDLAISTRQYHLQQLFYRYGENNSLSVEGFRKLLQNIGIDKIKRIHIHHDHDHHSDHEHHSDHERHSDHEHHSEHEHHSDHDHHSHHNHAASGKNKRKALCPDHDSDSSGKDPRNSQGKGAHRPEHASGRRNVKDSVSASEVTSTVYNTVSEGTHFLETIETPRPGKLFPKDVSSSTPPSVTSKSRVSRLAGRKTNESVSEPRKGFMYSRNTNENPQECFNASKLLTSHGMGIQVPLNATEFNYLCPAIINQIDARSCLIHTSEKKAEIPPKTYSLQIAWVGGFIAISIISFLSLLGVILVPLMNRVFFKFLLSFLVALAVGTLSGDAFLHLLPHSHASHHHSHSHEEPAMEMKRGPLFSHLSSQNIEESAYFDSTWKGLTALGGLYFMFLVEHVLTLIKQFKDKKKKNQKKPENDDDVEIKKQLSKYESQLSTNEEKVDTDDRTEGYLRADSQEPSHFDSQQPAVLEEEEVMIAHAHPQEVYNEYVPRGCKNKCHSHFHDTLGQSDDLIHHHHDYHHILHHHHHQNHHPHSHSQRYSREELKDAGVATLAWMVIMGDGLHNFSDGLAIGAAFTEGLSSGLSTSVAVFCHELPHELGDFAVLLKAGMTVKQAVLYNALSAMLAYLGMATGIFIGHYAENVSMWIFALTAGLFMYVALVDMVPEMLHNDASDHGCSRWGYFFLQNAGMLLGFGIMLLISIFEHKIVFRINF
Description: competition flow cytometry, CHO cells expressing human LIV-1, vs 5 nM AF647-labelled BR2-14a. A general note: In flow cytometry, cells or beads pass a laser one at a time.

The target in assay [2] is T2, human LIV-1 (UniProt Q13433 29-755).
T2 chain: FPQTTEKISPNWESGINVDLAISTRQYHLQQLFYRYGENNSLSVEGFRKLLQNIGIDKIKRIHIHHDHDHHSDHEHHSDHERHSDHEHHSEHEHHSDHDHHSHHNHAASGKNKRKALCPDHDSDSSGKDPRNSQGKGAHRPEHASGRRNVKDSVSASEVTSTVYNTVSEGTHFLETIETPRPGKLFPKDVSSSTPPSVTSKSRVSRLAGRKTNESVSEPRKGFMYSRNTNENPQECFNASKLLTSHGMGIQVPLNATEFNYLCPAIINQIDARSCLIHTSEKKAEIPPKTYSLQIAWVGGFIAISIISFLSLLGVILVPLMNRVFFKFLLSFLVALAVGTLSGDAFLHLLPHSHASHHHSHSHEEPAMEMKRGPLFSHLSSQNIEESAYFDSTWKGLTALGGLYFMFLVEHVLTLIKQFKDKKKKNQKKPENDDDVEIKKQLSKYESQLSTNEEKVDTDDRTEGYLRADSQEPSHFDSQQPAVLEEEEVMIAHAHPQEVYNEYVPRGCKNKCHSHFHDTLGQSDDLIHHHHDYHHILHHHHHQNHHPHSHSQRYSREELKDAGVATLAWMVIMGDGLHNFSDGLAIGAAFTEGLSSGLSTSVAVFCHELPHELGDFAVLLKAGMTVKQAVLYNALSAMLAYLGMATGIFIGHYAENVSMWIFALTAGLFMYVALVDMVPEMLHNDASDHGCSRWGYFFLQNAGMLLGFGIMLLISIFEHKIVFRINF
Description: competition binding on CHO hLIV1 cells.

Assay [3] concerns the target T1, human LIV-1. As to the kind of experiment: average of several saturation binding curves, flow cytometry, MCF7 cells.
For assay [4], the target named is T1, human LIV-1. Description: saturation binding, CHO cells expressing human or cyno LIV-1 (FIG. 22).
The target in assay [5] is T1, human LIV-1. Description: comparison of the EC50s of Table 3, CHO cells expressing human LIV-1. Here is the method: 1×10⁵ CHO cells expressing recombinant human LIV-1 in PBS/BSA were aliquoted into each well of a 96-well v-bottom plates on ice. […] Cells were pelleted and washed 3 times with PBS/BSA. The cells were pelleted and resuspended in 125 μL of PBS/BSA. Fluorescence was analyzed by flow cytometry, using percent of saturated fluorescent signal to determine percent labeled murine LIV-1 mAb bound and to subsequently extrapolate the EC50 by fitting the data to a sigmoidal dose-response curve with variable slope.

The target of assay [6] is T3, cynomolgus monkey LIV-1 (cynomolgus monkey, UniProt Q5R9M9 28-743 (Pongo abelii entry)).
T3 construct: Recombinant on transfected CHO cells; also called cyno LIV-1; cyLIV-1
T3 chain: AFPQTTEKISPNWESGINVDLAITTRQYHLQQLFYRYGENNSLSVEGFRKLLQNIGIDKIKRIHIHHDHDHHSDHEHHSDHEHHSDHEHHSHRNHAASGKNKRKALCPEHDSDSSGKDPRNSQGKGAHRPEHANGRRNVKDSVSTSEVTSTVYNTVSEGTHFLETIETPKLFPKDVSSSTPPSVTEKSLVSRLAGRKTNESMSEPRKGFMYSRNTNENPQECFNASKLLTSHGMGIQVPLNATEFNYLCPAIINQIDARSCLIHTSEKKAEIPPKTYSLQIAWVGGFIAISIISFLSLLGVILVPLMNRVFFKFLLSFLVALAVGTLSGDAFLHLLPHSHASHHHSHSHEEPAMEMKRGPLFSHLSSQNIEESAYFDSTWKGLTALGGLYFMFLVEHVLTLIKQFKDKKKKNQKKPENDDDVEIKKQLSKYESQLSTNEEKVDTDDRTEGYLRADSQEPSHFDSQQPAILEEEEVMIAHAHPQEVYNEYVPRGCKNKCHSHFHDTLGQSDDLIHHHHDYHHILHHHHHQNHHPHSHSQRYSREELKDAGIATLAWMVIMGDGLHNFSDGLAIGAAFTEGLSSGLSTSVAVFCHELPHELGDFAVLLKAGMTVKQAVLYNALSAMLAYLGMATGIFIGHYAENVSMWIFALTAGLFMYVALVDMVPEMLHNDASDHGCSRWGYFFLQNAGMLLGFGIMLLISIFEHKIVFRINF
Description: EC50 determination, CHO cells expressing recombinant cyno LIV-1. Here is the method: 1×10⁵ CHO cells expressing recombinant cyno LIV-1 in PBS were aliquoted in each well of a 96-well v-bottom plates on ice. […] Cells were pelleted and washed 3 times with PBS. The cells were pelleted and resuspended in 125 μL of PBS/BSA. Fluorescence was analyzed by flow cytometry, using percent of saturated fluorescent signal to determine percent labeled murine LIV-1 mAb bound and to subsequently extrapolate the EC50 by fitting the data to a sigmoidal dose-response curve with variable slope.

In assay [7] the target is T2, human LIV-1. Description: saturation binding, flow cytometry on MCF7 cells; AF-labeled.
The target of assay [8] is T2, human LIV-1. Description: saturation binding on CHO cells; apparent Kd.
In assay [9] the target is T4, cynomolgus monkey LIV-1.
T4 chain: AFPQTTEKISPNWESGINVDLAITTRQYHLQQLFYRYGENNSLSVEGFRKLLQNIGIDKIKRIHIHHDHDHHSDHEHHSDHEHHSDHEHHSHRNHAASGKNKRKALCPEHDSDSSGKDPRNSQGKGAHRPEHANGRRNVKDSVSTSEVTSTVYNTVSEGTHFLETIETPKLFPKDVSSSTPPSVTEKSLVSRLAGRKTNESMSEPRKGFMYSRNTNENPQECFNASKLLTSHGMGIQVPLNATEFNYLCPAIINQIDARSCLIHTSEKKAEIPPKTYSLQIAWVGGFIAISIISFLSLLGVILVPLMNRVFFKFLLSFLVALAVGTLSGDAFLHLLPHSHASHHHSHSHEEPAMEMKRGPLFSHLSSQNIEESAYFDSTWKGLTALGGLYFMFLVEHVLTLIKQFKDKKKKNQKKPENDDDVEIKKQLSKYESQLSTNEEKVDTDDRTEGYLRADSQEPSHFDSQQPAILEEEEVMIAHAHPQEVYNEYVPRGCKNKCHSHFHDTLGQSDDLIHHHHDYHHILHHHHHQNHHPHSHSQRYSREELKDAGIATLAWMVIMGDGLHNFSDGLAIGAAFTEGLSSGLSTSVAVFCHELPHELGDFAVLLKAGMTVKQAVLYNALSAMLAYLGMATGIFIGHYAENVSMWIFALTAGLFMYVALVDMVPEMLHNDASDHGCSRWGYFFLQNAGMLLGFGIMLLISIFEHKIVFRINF
As to the kind of experiment: saturation binding on CHO cells; apparent Kd.

The target of assay [10] is T1, human LIV-1. As to the kind of experiment: saturation binding, CHO cells expressing human LIV-1 (FIG. 22).
Assay [11] concerns the target T1, human LIV-1. As to the kind of experiment: competition flow cytometry, CHO cells expressing recombinant LIV-1, vs 5 nM AF647-labelled BR2-22a. Here is the method: 1×10⁵ CHO cells expressing recombinant LIV-1 in PBS were aliquoted into each well of a 96-well v-bottom plates on ice. […] Cells were pelleted and washed 3 times with PBS. The cells were then pelleted and resuspended in 125 μL of PBS/BSA. Fluorescence was analyzed by flow cytometery, using percent of saturated fluorescent signal to determine percent labeled humanized BR2-22a antibody bound and to subsequently extrapolate the EC50 by fitting the data to a sigmoidal dose-response curve with variable slope.
All permutations of these five heavy chains and six light chains were then tested in a competition assay compared with BR2-22a (see FIG. 17).

The target of assay [12] is T3, cynomolgus monkey LIV-1. Description: saturation binding, CHO cells expressing cyno LIV-1 (FIG. 22).
In assay [13] the target is T1, human LIV-1. Description: saturation binding of AF647-labelled antibody, flow cytometry, 293F (hLIV-1) cells. The method, then:
(§1) 1×10⁵ antigen expressing cells (either MCF7 cells expressing human LIV-1, 293F cells, a transfected CHO cell line expressing human LIV-1 or a transfected CHO cell line expressing cyno LIV-1) were aliquoted per well of a 96-well v-bottom plates. […] Cells were pelleted and washed 3× with PBS/BSA. The cells were then pelleted and resuspended in 125 μL of PBS/BSA. Fluorescence was analyzed by flow cytometery, using percent of saturated fluorescent signal to determine percent bound and to subsequently calculate apparent Kd.
(§2) The KD for the murine Liv1 of BR2-22a (Table 5) was determined for human LIV-1 expressed as an endogenous protein in a human breast cancer cell line, in 293F cells or as a recombinant protein in a CHO cell line. The KD for BR2-22a was also determined for cyno LIV-1 expressed as a recombinant protein in a CHO cell line.

For assay [14], the target named is T1, human LIV-1. As to the kind of experiment: saturation binding of AF647-labelled antibody, flow cytometry, MCF7 (ATCC) cells, endogenous hLIV-1. Here is the method: as §1, §2
Assay [15] concerns the target T2, human LIV-1. Description: competition binding.
Assay [16] addresses T3, cynomolgus monkey LIV-1. Description: saturation binding of AF647-labelled antibody, flow cytometry, CHO cyLIV-1 cells. Here is the method: as §1, §2
Assay [17] deals with T1, human LIV-1. Description: saturation binding of AF647-labelled antibody, flow cytometry, CHO hLIV-1 cells. The method, then:
as §1, §2

B1: humanized BR2-14a antibody HBLB (hLIV14) (antibody, human IgG1, V domains shown)
VH: QVQLVQSGAEVKKPGASVKVSCKASGYTIEDYYMHWVRQAPGQGLEWMGWIDPENGDTEYAPTFQGRVTMTRDTSINTAYMELSRLRSDDTAVYYCARHDAHYGTWFAYWGQGTLVTVSS
VL: DVVMTQSPLSLPVTLGQPASISCRSSQSIIRNDGNTYLEWYQQRPGQSPRRLIYRVSNRFSGVPDRFSGSGSGTDFTLKISRVEAEDVGVYYCFQGSHVPYTFGGGTKVEIKR
notes: also called hLIV-14 HBLB WT; LIV-1 mAb HBLB
On to B1, for which the values for the EC50 with human LIV-1 [1] and with human LIV-1 [2] were 0.3 µg/mL and 0.642 µg/mL, respectively. In addition, the Kd with human LIV-1 [3] is 1.5 nM; with human LIV-1 [7] it was 0.4 µg/mL and 2.9 nM; in the assay with human LIV-1 [8] it was 4.3 nM; with cynomolgus monkey LIV-1 [9] it was 2.1 nM. Moreover, the “fold affinity for human LIV-1 relative to cynomolgus LIV-1” value with human LIV-1 [4] is 2 fold. For the same molecule, in the assay with human LIV-1 [5], the “fold better binding than the next humanized antibody HBLF” value is not below 2 fold. Further, the binding result in the assay with cynomolgus monkey LIV-1 [6] is “binds”.

B2: humanized BR2-22a antibody HGLG (hLIV22) (antibody, V domains shown)
VH: QVQLVQSGAEVKKPGASVKVSCKASGLTIEDYYMHWVRQAPGQGLEWMGWIDPENGDTEYGPKFQGRVTMTRDTSINTAYMELSRLRSDDTAVYYCAVHNAHYGTWFAYWGQGTLVTVSS
VL: DVVMTQSPLSLPVTLGQPASISCRSSQSLLHSSGNTYLEWYQQRPGQSPRPLIYKISTRFSGVPDRFSGSGSGTDFTLKISRVEAEDVGVYYCFQGSHVPYTFGGGTKVEIKR
notes: Only variable regions tied to the tested antibody; also called humanized LIV22 antibody; hLIV-22 HG + hLIV-22 LG
Consider B2, for which the “fold higher affinity (inverse of dissociation constant) than hLIV14” value with human LIV-1 [10] is approximately 4 fold. Besides, the concentration for a half-maximal effect (EC50) with human LIV-1 [11] was found to be 0.5 µg/mL. Further, in the assay with cynomolgus monkey LIV-1 [12], the binding result is reported as “binds”. Besides, the Kd was found to be 1.2 nM with human LIV-1 [8] and 1.3 nM with cynomolgus monkey LIV-1 [9].

B3: mouse monoclonal antibody BR2-22a (antibody, mouse IgG1, V domains shown)
VH: EVQLQQSGAELVRSGASVKLSCTASGLNIEDYYMHWVKQRPEQGLEWIGWIDPENGDTEYGPKFQGKATMTADTSSNTAYLQLSSLTSGDTAVYYCTVHNAHYGTWFAYWGQGTLVTVSA
VL: DVLMTQTPLSLPVSLGDQASISCRSSQSLLHSSGNTYLEWYLQRPGQSPKPLIYKISTRFSGVPDRFSGSGSGTDFTLKISRVEAEDLGLYYCFQGSHVPYTFGGGTKLEIKR
notes: also called mAb2; parental BR2-22a
As for B3, the Kd with human LIV-1 [13] was 0.5 nM; in the assay with human LIV-1 [14], 1.1 nM; in the assay with cynomolgus monkey LIV-1 [16], 4.2 nM; with human LIV-1 [17] it was 1.5 nM; in the assay with human LIV-1 [8], 1.2 nM. In addition, in the assay with human LIV-1 [15], the EC50 was 0.3 µg/mL.

In general, EC50 refers to the concentration giving half of the maximal effect.
